These results are taken from PMC5180209 (Structure (London, England : 1993), 2016).

In general, Kd refers to the concentration at which binding is half-saturated. Low values mean higher affinity, high ones lower affinity.

Square brackets hold non-standard residues; d marks the D form. Ends that are not written are not given here. pS = N[C@@H](COP(=O)(O)O)C(=O)O

The experiment addresses B56γ 31–380 (PP2A regulatory subunit B56) (UniProt Q13362 31-380). As to the kind of experiment: ITC. Background: In ITC the heat of successive injections is recorded.

Regarding KL[pS]PIIEDE [BubR1 peptide 668-KLpSPIIEDE-676], the “fold increase of affinity as salt is reduced from 300 mM to 150 mM” value was roughly 3.6 fold. As to KLEPIIEDE [BubR1 peptide 668-KLEPIIEDE-676], the “fold weaker affinity than KLpSPIIEDE” value was found to be 2.4 fold. KL[pS]PIIED[pS] [pSpS-BubR1 peptide, 668-KL-pS-PIIED-pS-676 (dually-phosphorylated BubR1)]: the Kd is 2000 nM.

Regarding RDIASKKPLL[pS]PIPELPEVPE [pS-RepoMan peptide, 581-RDIASKKPLL-pS-PIPELPEVPE-601 (mono-phosphorylated RepoMan)], binding was put at a Kd of 100 nM. As for KL[pS]PIIED [BubR1 peptide 668-KLpSPIIED-675], the “fold weaker binding than the peptide with residue 676” value was roughly 1.7 fold. In turn, TLSIKKL[pS]PIIEDDREADH [pS-BubR1 peptide, 663-TLSIKKL-pS-PIIEDDREADH-681 (mono-phosphorylated BubR1)] displayed a Kd of 600 nM.
